Measurements: US20180273587A1 (AILERON THERAPEUTICS, published 2018)
Positions of bridges follow the written chain, without caps; N, C: chain ends. Non-standard residues stand in square brackets, D forms with d. R8 = C=CCCCCCC[C@@](C)(N)C(=O)O; S5 = C=CCCC[C@](C)(N)C(=O)O

Columns and labels:
Test in all cases: Ki table, method not stated
BCL-2 = BCL-2 (UniProt P10415 1-217, limits assumed)
BCL-XL = BCL-XL (UniProt Q07817 1-209)
MCL-1 = molecular target: T1, MCL-1 (UniProt Q07820 172-327, limits assumed)
T1 construct: also called Myeloid cell leukemia 1
T1 sequence (Q07820 172-327 limits assumed): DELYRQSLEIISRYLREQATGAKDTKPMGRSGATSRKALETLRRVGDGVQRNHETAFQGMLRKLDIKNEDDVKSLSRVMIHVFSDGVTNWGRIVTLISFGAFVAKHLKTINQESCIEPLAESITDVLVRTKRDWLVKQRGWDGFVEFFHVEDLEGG

Sequence of BCL-2 (P10415 1-217 limits assumed): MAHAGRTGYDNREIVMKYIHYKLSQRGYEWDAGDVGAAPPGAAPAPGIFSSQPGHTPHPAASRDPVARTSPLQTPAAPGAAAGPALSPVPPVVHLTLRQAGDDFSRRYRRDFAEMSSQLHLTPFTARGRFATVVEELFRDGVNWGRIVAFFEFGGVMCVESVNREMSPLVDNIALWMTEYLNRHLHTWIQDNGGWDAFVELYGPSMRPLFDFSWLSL
Sequence of BCL-XL (Q07817 1-209): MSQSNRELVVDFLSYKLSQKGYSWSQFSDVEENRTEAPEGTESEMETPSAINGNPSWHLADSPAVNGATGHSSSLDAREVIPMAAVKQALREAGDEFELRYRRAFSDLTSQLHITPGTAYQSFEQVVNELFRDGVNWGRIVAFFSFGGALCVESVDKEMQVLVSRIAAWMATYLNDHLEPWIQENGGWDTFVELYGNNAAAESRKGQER

Binder | Ki (BCL-2) [nM] | Ki (BCL-XL) [nM] | Ki (MCL-1) [nM]
Ac-EWIAAALR[R8]IGDAFN[S5]YYA-NH2 (staple 9-16; SMILES CC[C@H](C)[C@H](NC(=O)[C@H](Cc1c[nH]c2ccccc12)NC(=O)[C@H](CCC(=O)O)NC(C)=O)C(=O)N[C@@H](C)C(=O)N[C@@H](C)C(=O)N[C@@H](C)C(=O)N[C@@H](CC(C)C)C(=O)N[C@@H](CCCNC(=N)N)C(=O)N[C@]1(C)CCCCCCC=CCCC[C@@](C)(C(=O)N[C@@H](Cc2ccc(O)cc2)C(=O)N[C@@H](Cc2ccc(O)cc2)C(=O)N[C@@H](C)C(N)=O)NC(=O)[C@H](CC(N)=O)NC(=O)[C@H](Cc2ccccc2)NC(=O)[C@H](C)NC(=O)[C@H](CC(=O)O)NC(=O)CNC(=O)[C@H]([C@@H](C)CC)NC1=O) [SEQ ID NO: 1716] | 118 | 72 | 2.2
Ac-RWIAAALR[R8]IGDAFN[S5]YYA-NH2 (staple 9-16; SMILES CC[C@H](C)[C@H](NC(=O)[C@H](Cc1c[nH]c2ccccc12)NC(=O)[C@H](CCCNC(=N)N)NC(C)=O)C(=O)N[C@@H](C)C(=O)N[C@@H](C)C(=O)N[C@@H](C)C(=O)N[C@@H](CC(C)C)C(=O)N[C@@H](CCCNC(=N)N)C(=O)N[C@]1(C)CCCCCCC=CCCC[C@@](C)(C(=O)N[C@@H](Cc2ccc(O)cc2)C(=O)N[C@@H](Cc2ccc(O)cc2)C(=O)N[C@@H](C)C(N)=O)NC(=O)[C@H](CC(N)=O)NC(=O)[C@H](Cc2ccccc2)NC(=O)[C@H](C)NC(=O)[C@H](CC(=O)O)NC(=O)CNC(=O)[C@H]([C@@H](C)CC)NC1=O) [SEQ ID NO: 1717] | 47.8 | 32.8 | 4.5
Ac-SWIAAALR[R8]IGDAFN[S5]YYA-NH2 (staple 9-16; SMILES CC[C@H](C)[C@H](NC(=O)[C@H](Cc1c[nH]c2ccccc12)NC(=O)[C@H](CO)NC(C)=O)C(=O)N[C@@H](C)C(=O)N[C@@H](C)C(=O)N[C@@H](C)C(=O)N[C@@H](CC(C)C)C(=O)N[C@@H](CCCNC(=N)N)C(=O)N[C@]1(C)CCCCCCC=CCCC[C@@](C)(C(=O)N[C@@H](Cc2ccc(O)cc2)C(=O)N[C@@H](Cc2ccc(O)cc2)C(=O)N[C@@H](C)C(N)=O)NC(=O)[C@H](CC(N)=O)NC(=O)[C@H](Cc2ccccc2)NC(=O)[C@H](C)NC(=O)[C@H](CC(=O)O)NC(=O)CNC(=O)[C@H]([C@@H](C)CC)NC1=O) [SEQ ID NO: 1720] | 53.2 | 33.4 | 3.9
Ac-QWIAAALR[R8]IGDAFN[S5]YYA-NH2 (staple 9-16; SMILES CC[C@H](C)[C@H](NC(=O)[C@H](Cc1c[nH]c2ccccc12)NC(=O)[C@H](CCC(N)=O)NC(C)=O)C(=O)N[C@@H](C)C(=O)N[C@@H](C)C(=O)N[C@@H](C)C(=O)N[C@@H](CC(C)C)C(=O)N[C@@H](CCCNC(=N)N)C(=O)N[C@]1(C)CCCCCCC=CCCC[C@@](C)(C(=O)N[C@@H](Cc2ccc(O)cc2)C(=O)N[C@@H](Cc2ccc(O)cc2)C(=O)N[C@@H](C)C(N)=O)NC(=O)[C@H](CC(N)=O)NC(=O)[C@H](Cc2ccccc2)NC(=O)[C@H](C)NC(=O)[C@H](CC(=O)O)NC(=O)CNC(=O)[C@H]([C@@H](C)CC)NC1=O) [SEQ ID NO: 1721] | 64.9 | 35.9 | 4.8
Ac-KWIAAALR[R8]IGDAFN[S5]YYA-NH2 (staple 9-16; SMILES CC[C@H](C)[C@H](NC(=O)[C@H](Cc1c[nH]c2ccccc12)NC(=O)[C@H](CCCCN)NC(C)=O)C(=O)N[C@@H](C)C(=O)N[C@@H](C)C(=O)N[C@@H](C)C(=O)N[C@@H](CC(C)C)C(=O)N[C@@H](CCCNC(=N)N)C(=O)N[C@]1(C)CCCCCCC=CCCC[C@@](C)(C(=O)N[C@@H](Cc2ccc(O)cc2)C(=O)N[C@@H](Cc2ccc(O)cc2)C(=O)N[C@@H](C)C(N)=O)NC(=O)[C@H](CC(N)=O)NC(=O)[C@H](Cc2ccccc2)NC(=O)[C@H](C)NC(=O)[C@H](CC(=O)O)NC(=O)CNC(=O)[C@H]([C@@H](C)CC)NC1=O) [SEQ ID NO: 1718] | 49.7 | 27.2 | 3.9
Ac-HWIAAALR[R8]IGDAFN[S5]YYA-NH2 (staple 9-16; SMILES CC[C@H](C)[C@H](NC(=O)[C@H](Cc1c[nH]c2ccccc12)NC(=O)[C@H](Cc1c[nH]cn1)NC(C)=O)C(=O)N[C@@H](C)C(=O)N[C@@H](C)C(=O)N[C@@H](C)C(=O)N[C@@H](CC(C)C)C(=O)N[C@@H](CCCNC(=N)N)C(=O)N[C@]1(C)CCCCCCC=CCCC[C@@](C)(C(=O)N[C@@H](Cc2ccc(O)cc2)C(=O)N[C@@H](Cc2ccc(O)cc2)C(=O)N[C@@H](C)C(N)=O)NC(=O)[C@H](CC(N)=O)NC(=O)[C@H](Cc2ccccc2)NC(=O)[C@H](C)NC(=O)[C@H](CC(=O)O)NC(=O)CNC(=O)[C@H]([C@@H](C)CC)NC1=O) [SEQ ID NO: 1719] | 52 | 25.2 | 3.6

Second part, the binder after the results:

Ki (BCL-2) [nM] | Ki (BCL-XL) [nM] | Ki (MCL-1) [nM] | Binder
63.9 | 32.6 | 3.8 | Ac-AWIAAALR[R8]IGDAFN[S5]YYA-NH2 (staple 9-16; SMILES CC[C@H](C)[C@H](NC(=O)[C@H](Cc1c[nH]c2ccccc12)NC(=O)[C@H](C)NC(C)=O)C(=O)N[C@@H](C)C(=O)N[C@@H](C)C(=O)N[C@@H](C)C(=O)N[C@@H](CC(C)C)C(=O)N[C@@H](CCCNC(=N)N)C(=O)N[C@]1(C)CCCCCCC=CCCC[C@@](C)(C(=O)N[C@@H](Cc2ccc(O)cc2)C(=O)N[C@@H](Cc2ccc(O)cc2)C(=O)N[C@@H](C)C(N)=O)NC(=O)[C@H](CC(N)=O)NC(=O)[C@H](Cc2ccccc2)NC(=O)[C@H](C)NC(=O)[C@H](CC(=O)O)NC(=O)CNC(=O)[C@H]([C@@H](C)CC)NC1=O) [SEQ ID NO: 1722]
41.1 | 36.3 | 3 | Ac-IDIAAALR[R8]IGDAFN[S5]YYA-NH2 (staple 9-16; SMILES CC[C@H](C)[C@H](NC(C)=O)C(=O)N[C@@H](CC(=O)O)C(=O)N[C@H](C(=O)N[C@@H](C)C(=O)N[C@@H](C)C(=O)N[C@@H](C)C(=O)N[C@@H](CC(C)C)C(=O)N[C@@H](CCCNC(=N)N)C(=O)N[C@]1(C)CCCCCCC=CCCC[C@@](C)(C(=O)N[C@@H](Cc2ccc(O)cc2)C(=O)N[C@@H](Cc2ccc(O)cc2)C(=O)N[C@@H](C)C(N)=O)NC(=O)[C@H](CC(N)=O)NC(=O)[C@H](Cc2ccccc2)NC(=O)[C@H](C)NC(=O)[C@H](CC(=O)O)NC(=O)CNC(=O)[C@H]([C@@H](C)CC)NC1=O)[C@@H](C)CC) [SEQ ID NO: 1725]
76.7 | 33.9 | 6.2 | Ac-FWIAAALR[R8]IGDAFN[S5]YYA-NH2 (staple 9-16; SMILES CC[C@H](C)[C@H](NC(=O)[C@H](Cc1c[nH]c2ccccc12)NC(=O)[C@H](Cc1ccccc1)NC(C)=O)C(=O)N[C@@H](C)C(=O)N[C@@H](C)C(=O)N[C@@H](C)C(=O)N[C@@H](CC(C)C)C(=O)N[C@@H](CCCNC(=N)N)C(=O)N[C@]1(C)CCCCCCC=CCCC[C@@](C)(C(=O)N[C@@H](Cc2ccc(O)cc2)C(=O)N[C@@H](Cc2ccc(O)cc2)C(=O)N[C@@H](C)C(N)=O)NC(=O)[C@H](CC(N)=O)NC(=O)[C@H](Cc2ccccc2)NC(=O)[C@H](C)NC(=O)[C@H](CC(=O)O)NC(=O)CNC(=O)[C@H]([C@@H](C)CC)NC1=O) [SEQ ID NO: 1724]
